In publication doi:10.1101/2025.06.10.658867 (bioRxiv, 2025):
Positions count from the first letter of the chain named. Names and notes keep the numbering of the source. Blank lines part the entries; values can stand above or below the binder they belong to.

Key:
[1] = molecular target: Siglec-10_(d1-d2) WT fused to human IgG1 Fc (Siglec-10Fc WT) (human, UniProt Q96LC7); experiment: BLI
[2] = molecular target: the molecule itself; experiment: DNA-PAINT super-resolution microscopy with nearest-neighbour distance analysis

Kd [1]: 1.1 nM
B1: Fab portion of the anti-Siglec-10 mAb S10A (S10A Fab) (Fab, V domains shown)
VH: QIQLQQSGAELEKPGASVKMSCKASGYTFTSYWMHWVKQRPGQGLEWIGYINPDTDSTEYNQKFRDKATLTADKSSSTAYMQLSSLTSEDSAVYYCARPYYRYAGYAMDYWGQGTSVTVSS
VL: DIKMTQSPSSMYASLGERVTITCKASQDINSYLSWFQQKPGKSPKTLIYRANRLVDGVPSRFSGSGSGQVYSLTISSLEYEDLGIYYCLQYDEFPWTFGGGTKLEIK

B2: intracellularly GFP-tagged Siglec-10 R127A in THP-1 cells (receptor, human, UniProt Q96LC7 17-697, looked up)
chain: MDGRFWIRVQESVMVPEGLCISVPCSFSYPRQDWTGSTPAYGYWFKAVTETTKGAPVATNHQSREVEMSTRGRFQLTGDPAKGNCSLVIRDAQMQDESQYFFRVERGSYVAYNFMNDGFFLKVTALTQKPDVYIPETLEPGQPVTVICVFNWAFEECPPPSFSWTGAALSSQGTKPTTSHFSVLSFTPRPQDHNTDLTCHVDFSRKGVSAQRTVRLRVAYAPRDLVISISRDNTPALEPQPQGNVPYLEAQKGQFLRLLCAADSQPPATLSWVLQNRVLSSSHPWGPRPLGLELPGVKAGDSGRYTCRAENRLGSQQRALDLSVQYPPENLRVMVSQANRTVLENLGNGTSLPVLEGQSLCLVCVTHSSPPARLSWTQRGQVLSPSQPSDPGVLELPRVQVEHEGEFTCHARHPLGSQHVSLSLSVHYSPKLLGPSCSWEAEGLHCSCSSQASPAPSLRWWLGEELLEGNSSQDSFEVTPSSAGPWANSSLSLHGGLSSGLRLRCEAWNVHGAQSGSILQLPDKKGLISTAFSNGAFLGIGITALLFLCLALIIMKILPKRRTQTETPRPRFSRHSTILDYINVVPTAGPLAQKRNQKATPNSPRTPLPPGAPSPESKKNQKKQYQLPSFPEPKSSTQAPESQESQEELHYATLNFPGVRPRPEARMPKGTQADYAEVKFQ
mean percent dimers after tunicamycin [2]: 69%
mean percent dimers before tunicamycin [2]: 59%
percent dimers [2]: 47%

B3: intracellularly GFP-tagged Siglec-10 WT in THP-1 cells (receptor, human, UniProt Q96LC7 17-697, looked up)
chain: B2 chain with A111R
mean percent dimers after tunicamycin [2]: 50%
mean percent dimers before tunicamycin [2]: 61%
percent dimers [2]: 67%

B4: intracellularly GFP-tagged Siglec-10 R119A in THP-1 cells (receptor, human, UniProt Q96LC7 17-697, looked up)
chain: B2 chain with R103A, A111R
mean percent dimers after tunicamycin [2]: 69%
mean percent dimers before tunicamycin [2]: 72%
percent dimers [2]: 69%
